Test results: patent US9744220B2, “Compositions and methods for treating inflammatory diseases” (priority 2013, dated 2017)

Key:
[1] = test system: MCP-1 and FKN receptors CCR2 and CX3CR1; experiment: IV sPDNF into naïve mice, chemokine receptor transcripts by qPCR; type: in vivo
Method: For the results depicted in FIGS. 12A and 12B, mice (3/group) were injected with various single doses of IV sPDNF, and sacrificed 3 hr post-injection. FIG. 12A is a graph showing the mRNA expression of MCP-1 receptor CCR2, as quantified by qPCR in the heart and liver. FIG. 12B is a graph showing the mRNA expression of FKN receptor CX3CR1, as quantified by qPCR in the heart and liver. […] For the results depicted in FIGS. 12C and 12D, mice (3/group) were injected with vehicle (Veh) or multiple doses of IV sPDNF (25 μg per injection) at 0, 3 and 24 hr, and sacrificed 24 hr after the last injection. FIG. 12C is a graph showing mRNA expression of CCR2, as quantified by qPCR in the liver, colon and heart (ventricles and atria). FIG. 12D is a graph showing mRNA expression of CX3CR1, as quantified by qPCR in the liver, colon and heart (ventricles and atria). Notice a statistically significant upregulation of MCP-1 and FKN receptors in the heart and liver 48-h after the start of three doses of IV sPDNF spaced within a 24 h span; *P<0.05, and ** P<0.01
One of the functions of MCP-1 and FKN is to attract cells expressing their receptors (CCR2 and CX3CR1, respectively) to tissue sites. […] Thus, sPDNF-induced MCP-1 and FKN promoted migration of cells bearing CCR2 and CX3CR1 receptors.
RNA was isolated from Trizol lysates of cell monolayers or liquid nitrogen snap frozen tissue samples dissociated by a Tissue-Tearor mechanical homogenizer (Biospec Products, Inc.). cDNA was synthesized using the Quantitect Reverse Transcription kit (Qiagen) according to manufacturer's instructions. Chemokine and chemokine receptor transcripts were amplified using specific primers and normalized to HPRT using SYBR Green (Qiagen), and, if needed, expressed relative to control-unstimulated cells. The following primers were used: […]
sPDNF was diluted in sterile endotoxin-free PBS (200 μl) and injected via the tail vein into 6-8 week old female C57BL/6 mice. Mice receiving single IV injections of 150 μg sPDNF per mouse were sacrificed at 3, 6, 9, and 12 hr post-injection, or various doses of sPDNF (100 ng-150 μg) and sacrificed 3 hr post-injection. Mice receiving multiple injections of sPDNF or PBS vehicle control (0, 3, and 24 hr, 100 μg per injection) were sacrificed 24 hr after the last injection (i.e., 48 hr after the first injection). Mice were perfused with PBS and organs harvested as described above.

H9c2 cardiomyocytes = experiment: sPDNF stimulation of H9c2 cardiomyocytes, secretion by ELISA; type: cell-based, rat; conditions: H9c2, 3 hr
Method: FIG. 8A is a graph showing dose-response of MCP-1 secretion to sPDNF stimulation. H9c2 cardiomyocytes were plated in 6-well plates, grown in low serum (0.1% FCS) overnight, and stimulated with the indicated doses of sPDNF for 3 hr. Secretion of MCP-1, MIP-2α and IL-6 was determined by ELISA. FIG. 8B is a graph showing dose-response of MCP-transcript expression. H9c2 cardiomyocytes were plated in 6-well plates, grown in low serum (0.1%) overnight, and stimulated with the indicated doses of sPDNF for 3 hr, and MCP-transcript quantified by qPCR. Chemokine gene expression was normalized to HPRT and fold change calculated relative to vehicle-treated cells. Points represent mean±SD fold change expression of triplicate samples; *P<0.05, **P<0.01, and ***P<0.005. FIG. 8C is a graph showing time course of MCP-1 and FKN transcripts expression. H9c2 cardiomyocytes were plated in 6-well plates (triplicate), grown in low serum (0.1%) overnight, stimulated with sPDNF (1 μg/ml) for the indicated times, and MCP-1 and FKN (data not shown) transcripts quantified by qPCR. Three experiments gave similar results.
Primary cardiomyocytes and cardiac fibroblasts, and H9c2 cardiomyocytes were seeded at 6-8×10^4 cells per well in DMEM/10% FCS and allowed to adhere overnight, serum starved (DMEM/0.1% FCS overnight), and treated with sPDNF (0.5 ng/ml-8 μg/ml, 0-16 h). Cell supernatants were collected and stored at −80° C. and cell monolayers rinsed with PBS and collected in Trizol for qPCR analysis.
MCP-1: 96-well Maxisorp plates (Nunc) were coated overnight with relevant supernatants or MCP-1 standards (R&D Systems, 479-JE/CF) in coating buffer (50 mM NaHCO3/Na2CO3, pH 9.6, 0.02% NaN3), blocked in 5% BSA/PBST, reacted with a MCP-1 detection antibody (Santa Cruz, SC-28879; 1:200; 2 hr), and then alkaline-phosphatase (AP) conjugated secondary antibody (Sigma A3687; 1:1000; 1 hr). Between each step, plates were washed 2-4 times with PBST. […] MCP-1 concentrations were calculated relative to a 4-parametric standard curve using the SOFTmax Pro program. […]

[2] = IV at 0, 3 and 24 hr, measured 24 hr after the last injection

B1: sPDNF: N-terminal short-form of T cruzi PDNF that contains Trk-binding sites, recombinant; amino acids 1-588 of SEQ ID NO: 2; JR-100 is the commercial name (protein, listed as Trypanosoma cruzi)
chain: MGKTVVVASRMFWLMFFVPLLLAICPSEPAYALAPGSSRVELFKRKNSTVPFEDKAGKVTERVVHSFRLPALVNVDGVMVAIADARYDTSNDNSLIDTVAKYSVDDGETWETQIAIKNSRVSSVSRVVDPTVIVKGNKLYVLVGSYYSSRSYWSSHGDARDWDILLAVGEVTKSTAGGKITASIKWGSPVSLKKFFPAEMEGMHTNQFLGGAGVAIVASNGNLVYPVQVTNKKKQVFSKIFYSEDDGKTWKFGKGRSDFGCSEPVALEWEGKLIINTRVDWKRRLVYESSDMEKPWVEAVGTVSRVWGPSPKSNQPGSQSSFTAVTIEGMRVMLFTHPLNFKGRWLRDRLNLWLTDNQRIYNVGQVSIGDENSAYSSVLYKDDKLYCLHEINTDEVYSLVFARLVGELRIIKSVLRSWKNWDSHLSSICTPADPAASSSESGCGPAVTTVGLVGFLSGNASQNVWEDAYRCVNASTANAERVRNGLKFAGVGGGALWPVSQQGQNQRYRFANHAFTLVASVTIHEAPRAASPLLGASLDSSGGKKLLGLSYDEKHQWQPIYGSTPVTPTGSWETGKRYHLVLTMANKI
- CCR2 in the liver and heart (ventricle and atrium) [1, 2]: significant increase
- CX3CR1 in the liver and heart (ventricle and atrium) [1, 2]: significant increase
- CCR2 transcripts in cardiac and hepatic tissues ([1]; single IV dose (150 μg)): did not increase
- CX3CR1 transcripts in cardiac and hepatic tissues ([1]; single IV dose (150 μg)): did not increase
- secretion of IL-6 (H9c2 cardiomyocytes): did not alter
- secretion of macrophage inflammatory protein-2a/MIP-2a/CXCL2 (H9c2 cardiomyocytes): did not alter
- secretion of MCP-1 (H9c2 cardiomyocytes; dose-dependently): dramatically increased
